Data as given in patent US20030119772A1.

Biological target: ZEB expressed in NIH 3T3 cells in the p21 promoter luciferase reporter assay
Assay: cell-based or functional assay

Row | Substance | p21-promoter-driven luciferase reporter (p53-mediated transactivation) in NIH 3T3 cells [fold] | p21-promoter-driven luciferase reporter in NIH 3T3 cells, relative light units [fold]
1 | CtBP1 | 4 | –
2 | 53BP1 co-expressed in NIH 3T3 cells in the p21 promoter luciferase reporter assay | – | 2
